Kd and EC50 data for 4 molecules are collected here from patent US20150140000A1 (INNATE PHARMA, published 2015).

In experiment [1] the target is T1, recombinant human His-tagged TLR3 extracellular domain protein (human, UniProt O15455 24-704).
T1 construct: Bought protein; also called TLR3-His; recombinant human TLR3; not shown: His tag
Kind of experiment: SPR (Biacore T100), bivalent affinity, TLR3-His immobilized, pH 7.2; pH 7.2. Background: Surface plasmon resonance follows binding to a sensor surface in real time, without labels.

The target of experiment [2] is T1, recombinant human His-tagged TLR3 …. Kind of experiment: SPR (Biacore T100), bivalent affinity, TLR3-His immobilized, pH 5.6; pH 5.6.
Method: For bivalent affinity measurement, unless indicated otherwise, TLR3-His protein was immobilized on a Sensor Chip CM5 (carboxymethylated dextran layer) by amine coupling. […] The resulting sensorgrams were analysed by global fitting using the appropriate model.
Binding to TLR3 at neutral (pH 7.2) and acid (pH 5.6) conditions, and KD values were calculated.
The target of experiment [3] is wild-type human TLR3 ECD-CD32 construct (V5-TLR3-CD32) on HEK293T cells (human). Briefly: flow cytometry, 293T cells expressing TLR3/CD32 solely at the surface, neutral pH. In general terms: A flow cytometer gives signals particle by particle.
Method: Following two wash cycles, cell MFI was analyzed on a FACS Canto II cytometer.

A word on the EC50: it is the concentration needed to bring the measured effect to its halfway point. A high value points to lower potency in that assay.

B1: antibody 11E1 (antibody, V domains shown)
VH: QVQLQQPGAELVRPGASVKLSCKASGYTFTNYWMNWVKQRPGQGLEWIGMIDPSDSETHYNQMFKDKATLTVDKSSSTAYMQLSSLTSEDSAVYYCARGGASSDYYYFDYWGQGTTLTVSSASTK
VL: ETTVTQSPASLSMAIGEKVTIRCITSTDIHDDINWYQQKPGEPPKLLISEGNTLRPGVPSRFSSSGYGTDFVFTIENMLSEDVADYYCLQSDNLPRTFGGGTKLEIKRT
notes: Mouse monoclonal from Balb/c immunization #1; also called clone 11E1
Take B1: the figures for the Kd in experiment [1] and in experiment [2] were 0.0875 nM and 1 nM, respectively. The EC50 in experiment [3] amounted to 0.016 µg/mL.

B2: antibody 32C4 (antibody, V domains shown)
VH: EVQLQQYGAELGKPGTSVKLSCKVSGYNIWSTYIYWVNQRPGKGLEWIGRIDPANGNTIYAEKFKTKATLTADTSSNTAYMQLSQLKSDDTAIYFCAMGDHGGYVMDAWGQGASVTVSS
VL: DIQMTQSPGSLSASLGETVSIECLASEDIYSYLAWYQQKPGKSPQLLIYAANRLEDGVPSRFSGSGSGTQYSLKISGMQPEDEGDYFCLQGSEFPYTFGTGTKLELK
notes: Rat monoclonal from LOU/c immunization #2; also called clone 32C4
The molecule B2 had a half-maximal effective concentration (EC50) in experiment [3] of 0.037 µg/mL.

B3: antibody 7G11 (antibody, V domains shown)
VH: EVQLQQYGAELGKPGTSVKLSCKVSGYNITYTYMHWVNQRPGKGLEWIGRIDPANGNTIYGEKFKNKATLTADTSSNTAYMQLSQLKSDDTAIYFCAMGEFDYFDHWGQGVMVTVSS
VL: DIQMTQSPASLSASLGETVSIECLASEDISNDLAWYQQKSGKSPQVLIYAASRLEDGVPSRFSGSGSGTRYSLKISGMQPEDEADYFCQQSYKYPVTFGSGTKLEIK
notes: Rat monoclonal from LOU/c immunization #2; also called clone 7G11
Take B3: the midpoint of the response in experiment [3], the EC50, lay at 0.021 µg/mL.

B4: antibody 31F6 (antibody, V domains shown)
VH: EVQLQQSGAELGKPGTSVKLSCKVSGYNIRYTYMHWVNQRPGKGLEWIGRIDPANGDSIYGEDFKTKATLTADTSSNTAYMQLSQLKSDDTAIYFCAMGEFDYFDYWGQGVMVTVSSASTK
VL: DIQMTQSPPSLSASLGETVSIECLASEGISNDLAWYQQRSGKSPQLLIYAASRLQDGVPSRFSGSGSGTRYSLKISGMQPEDEADYFCQQNYKYPLTFGSGTKLEIK
notes: Rat monoclonal from LOU/c immunization #2; also called clone 31F6
In experiment [3], B4 gave an EC50 of 0.026 µg/mL.
